B1: ZNF277 (parent)
chain: ILREELQKQRLREILEQQQQERND

Variants of: B1
Experiment: protein stability index of a GFP-peptide fusion (GPS, HEK-293T) (PSI 1-6); higher = more stable
Settings: c terminus: a fixed tail appended
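Also: lentivirally expressed fusions sorted by FACS into six bins by GFP to DsRed ratio, PSI derived from sequencing read proportions per bin multiplied by bin number.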

Variant | protein stability index
L2E | 5.51
L2D | 5.63
L2K | 5.45
L2Q | 5.61
L2M | 4.21
L2T | 5.04
L2V | 4.73
L2F | 4.55
L2A | 5.13
L2I | 4.41
L2W | 3.79
L2P | 4.86
L2R | 5.03
L2H | 5.24
L2N | 5.57
L2S | 5.33
L2C | 3.94
L2Y | 4.81
L2G | 5.11
L6G | 4.9
L6E | 5.19
L6D | 4.76
L6Y | 4.22
L6C | 4.18

Variant | protein stability index
L6W | 5.58
L6N | 4.65
L6A | 4.4
L6T | 4.75
L6M | 3.89
L6F | 4.49
L6Q | 3.69
L6S | 4.44
L6P | 5.5
L6V | 4.65
L6I | 4.56
L6R | 4.88
L6H | 4.59
L6K | 4.96
I1Y | 4.75
I14H | 3.89
I14N | 4.46
I14R | 3.49
I14G | 4.74
I14T | 4.84
I14L | 3.01
I14P | 5.11
I14M | 4.3
I14Y | 4.34

Variant | protein stability index
I14C | 4.13
I14Q | 4.81
I14A | 5.04
I14E | 4.85
I14F | 3.5
I14D | 5.07
I14K | 3.53
I14V | 4.25
L11C | 4.71
L11A | 4.83
L11H | 4.94
L11Y | 4.58
L11N | 4.76
L11V | 2.73
L11D | 4.8
L11K | 4.31
L11S | 4.68
L11F | 4.09
L11M | 4.91
L11R | 4.37
L11E | 5.06
L11I | 4.52
L11P | 4.38
L11W | 3.94

Variant | protein stability index
L11Q | 5.05
L11G | 5.22
L11T | 4.66
Q9N | 3.79
Q9T | 4.01
Q9V | 4.15
Q9G | 4.05
Q9W | 3.53
Q9C | 4.41
Q9I | 4.18
Q9Y | 3.9
Q9M | 4.32
Q9P | 4.52
Q9D | 4.98
Q9L | 4.41
Q9S | 4.41
Q9H | 5.05
Q9K | 4.42
Q9E | 3.04
Q9R | 4.41
Q9F | 4.12
E4W | 3.28
E4I | 3.79
E4T | 4.42

Variant | protein stability index
E4N | 4.16
E4L | 3.05
E4P | 4.95
E4Q | 3.99
E4K | 3.22
E4R | 3.61
E4Y | 3.38
E4H | 3.95
E4A | 3.85
E4S | 4.18
E4V | 3.88
E4F | 2.99
E4G | 4.89
E4M | 3.75
E4D | 4.06
E16P | 4.8
E16F | 3.66
E16H | 3.87
E16G | 3.51
E16D | 4.61
E16S | 4.04
E16K | 3.83
E16V | 3.9
E16R | 3.53

Variant | protein stability index
E16M | 3.81
E16W | 2.87
E16A | 3.07
E16I | 3.74
E16N | 3.89
E16T | 4.71
E16L | 3.63
E16Q | 3.77
R3V | 4.01
R3S | 4.96
R3K | 4.64
R3F | 3.4
R3Q | 4.69
R3H | 4.46
R3G | 5.05
R3W | 2.56
R3P | 5.31
R3E | 5.21
R3T | 4.36
R3A | 4.3
R3Y | 3.64
R3L | 2.82
R3N | 4.37
R3D | 5.06

Variant | protein stability index
R3I | 2.91
R3M | 3.68
Q19N | 3.5
Q19E | 3.98
Q19S | 4.41
Q19P | 4.29
Q19H | 4.67
Q19L | 3.87
Q19M | 3.35
Q19G | 4.57
Q19D | 4.4
Q19Y | 3.98
Q19T | 3.64
Q19C | 4.45
Q19K | 3.7
Q19W | 2.85
Q19A | 4.13
Q19F | 2.91
Q19V | 4.44
R12V | 4.41
R12N | 4.86
R12Y | 3.87
R12M | 4.58
R12T | 5.29

Variant | protein stability index
R12H | 4.14
R12K | 4.6
R12F | 4.23
R12G | 5.05
R12E | 5.08
R12C | 4.45
R12W | 3.67
R12Q | 4.72
R12I | 4.15
R12P | 4.78
R12A | 4.73
R12D | 5.8
R12L | 4.36
Q17E | 4.82
Q17L | 4.29
Q17D | 4.54
Q17N | 4.51
Q17A | 3.83
Q17R | 3.77
Q17I | 3.33
Q17T | 4.16
Q17F | 3.87
Q17V | 4.22
Q17M | 3.88

Variant | protein stability index
Q17W | 3.49
Q17C | 3.6
Q17S | 4.63
Q17P | 4.2
Q17G | 4.25
Q17H | 4.38
Q7T | 3.62
Q7W | 2.37
Q7K | 3.46
Q7F | 2.93
Q7C | 4.24
Q7I | 2.9
Q7H | 4.47
Q7M | 3.74
Q7P | 5
Q7E | 5.22
Q7S | 4.11
Q7L | 3.64
Q7A | 4.12
Q7D | 4.26
Q7R | 4.1
Q7G | 5.06
Q7V | 3.58
Q7N | 4.44

Variant | protein stability index
R10H | 4.85
R10E | 4.83
R10W | 3.23
R10S | 4.7
R10I | 3.41
R10N | 4.51
R10V | 4.07
R10P | 4.83
R10Y | 4.3
R10T | 4.59
R10L | 2.56
R10K | 4.59
R10G | 4.65
R10M | 3.58
R10C | 3.28
R10A | 4.38
R10F | 3.47
R10D | 5.47
L15V | 4.37
L15M | 4.03
L15F | 4.22
L15A | 5.04
L15P | 4.54
L15R | 4.82

Variant | protein stability index
L15Y | 4.18
L15D | 4.77
L15Q | 5.14
L15T | 4.67
L15C | 4.62
L15S | 4.99
L15W | 4.14
L15E | 4.99
L15I | 4.48
L15K | 4.37
L15G | 4.94
L15N | 4.32
L15H | 5.11
Q18S | 3.99
Q18T | 3.57
Q18C | 3.31
Q18P | 4.68
Q18F | 4.37
Q18K | 3.72
Q18D | 4.46
Q18W | 4.15
Q18V | 3.83
Q18E | 4.93
Q18Y | 2.9

Variant | protein stability index
Q18R | 4.97
Q18G | 4.57
Q18M | 3.59
Q18N | 4.37
Q18A | 3.98
Q18I | 2.52
Q18L | 3.37
Q20E | 5.03
Q20H | 3.94
Q20G | 4.22
Q20I | 4.36
Q20A | 4.93
Q20M | 3.96
Q20F | 3.44
Q20C | 4.2
Q20K | 4.51
Q20L | 4.05
E5Y | 3.55
E5H | 3.81
E5V | 2.42
E5Q | 4.17
E5P | 4.47
E5I | 2.94
E5W | 2.84

Variant | protein stability index
E5N | 4.7
E5D | 4.76
E5R | 3.68
E5C | 3.76
E5A | 2.71
E5S | 3.99
E5M | 3.05
E5F | 2.35
E5K | 4.51
E5G | 5.27
K8M | 4.12
K8L | 3.63
K8W | 3.82
K8D | 4.43
K8A | 4.7
K8I | 3.1
K8C | 3.96
K8F | 4.38
K8T | 4
K8P | 5.07
K8E | 5.3
K8V | 4.07
K8N | 4.53
K8R | 3.66

Variant | protein stability index
K8S | 4.81
K8G | 4.82
K8H | 4.41
K8Y | 4.11
K8Q | 4.98
E13Q | 4.22
E13T | 4.58
E13F | 3.77
E13N | 4.05
E13L | 3.75
E13I | 4.06
E13A | 3.74
E13H | 4.46
E13M | 4.01
E13S | 4.18
E13G | 4.54
E13K | 4.22
E13R | 4.11
E13C | 3.76
E13P | 4.56
E13V | 4.06
E13Y | 4.07

Source: the supplement of paper PMC10567573
